Experimental data from article PMC4213662.

Columns and labels:
[1] = molecular target: ribosome-nascent chain complex actively translating a 3'-truncated lepB mRNA encoding the first 155 amino acids (Cy3B-labeled 50S subunit) (E. coli (strain MC4100) | E. coli) (UniProt P00803); experiment: FRET or BRET; single-molecule FRET in zero-mode waveguides; 100 nM Cy5-SRP in solution, RNCs translating lepB mRNA (155 amino acids) held by the biotinylated mRNA; 750 nM EF-G; Tris-based polymix buffer with 5 mg/ml BSA and 10 µM Blocking oligo; rates estimated from the time at which curves reach 50%
[2] = molecular target: ribosome-nascent chain complex actively translating a 3'-truncated lepB mRNA encoding the first 155 amino acids (Cy3B-labeled 50S subunit) (E. coli (strain MC4100) | E. coli) (UniProt P00803); experiment: FRET or BRET; as a1 but 250 nM EF-G (slower elongation)

half-time of arrival after the initial binding event (2nd–10th arrivals) [1]: 5 s
half-time of first arrival [1]: 280 s
kon [1]: 1.8e+06 M⁻¹ s⁻¹
half-time of arrival after the initial binding event (2nd–10th arrivals) [2]: 12 s
half-time of first arrival [2]: 350 s
Substance: Cy5-labeled E. coli signal recognition particle (Ffh(E153C)-Cy5 reconstituted with 4.5S RNA) (from UniProt P0AGD7 1-453) (complex)
